Experiments:
[1] = target: human Trop-2 (human) (UniProt P09758); assay: cell-based or functional assay
[2] = target: human Trop-2 (human) (UniProt P09758); assay: cell binding on NCI-N87 cells, anti-mouse-HRP, luminescence
[3] = target: human Trop-2 (human) (UniProt P09758); assay: cell binding on NCI-N87 cells, Bmax against murine RS7 as reference
[4] = target: human Trop-2 (human) (UniProt P09758); assay: cell binding on NCI-N87 cells, 0.03 to 66 nM antibody, anti-mouse-HRP, luminescence
[5] = target: human Trop-2 (human) (UniProt P09758); assay: cell binding assay, cell line not stated

human Trop-2 (human), sequence (P09758 27-323): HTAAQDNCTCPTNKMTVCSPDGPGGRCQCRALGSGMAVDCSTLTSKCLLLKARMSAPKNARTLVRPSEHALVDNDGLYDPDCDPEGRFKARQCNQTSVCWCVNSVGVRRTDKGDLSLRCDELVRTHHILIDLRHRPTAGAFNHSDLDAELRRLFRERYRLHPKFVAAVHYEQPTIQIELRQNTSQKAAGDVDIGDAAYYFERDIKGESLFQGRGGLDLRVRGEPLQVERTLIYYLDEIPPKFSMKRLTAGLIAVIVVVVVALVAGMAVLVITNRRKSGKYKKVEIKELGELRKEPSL

Substance	ADCC, specific lysis of BxPC-3 cells by PBMCs (effector to target 100:1, antibody 33.3 nM) [1]	maximum binding (Bmax) (relative luminescent units) [2]	reduction of maximum binding (Bmax) compared to RS7 [3]	Kd [4]	Kd [5]
humanized RS7 (hRS7) anti-Trop-2 antibody, unconjugated IgG	8.5%				
MAB650 murine monoclonal antibody against human Trop-2 (R&D Systems)		6020	50%	0.49 nM	
hRS7-CL2-SN-38 (hRS7 IgG conjugated to SN-38 by the CL2 linker) (antibody)					1.2 nM
hRS7-CL2A-SN-38 (hRS7 IgG conjugated to SN-38 by the CL2A linker) (antibody)					1.2 nM
162-46.2 murine monoclonal antibody against human Trop-2		8470	25%	0.52 nM	
